Data: publication PMC6954417

Molecular target: DSS1 (human)
Assay: MST; labelled DSS1 50 nM constant, RAD52 1 nM to 36 uM, 30 mM Tris-acetate pH 7.5, 1 mM DTT, 25°C, quadratic binding equation

B1: RAD52 (natural protein)
chain: MSGTEEAILGGRDSHPAAGGGSVLCFGQCQYTAEEYQAIQKALRQRLGPEYISSRMAGGGQKVCYIEGHRVINLANEMFGYNGWAHSITQQNVDFVDLNNGKFYVGVCAFVRVQLKDGSYHEDVGYGVSEGLKSKALSLEKARKEAVTDGLKRALRSFGNALGNCILDKDYLRSLNKLPRQLPLEVDLTKAKRQDLEPSVEEARYNSCRPNMALGHPQLQQVTSPSRPSHAVIPADQDCSSRSLSSSAVESEATHQRKLRQKQLQQQFRERMEKQQVRVSTPSAEKSEAAPPAPPVTHSTPVTVSEPLLEKDFLAGVTQELIKTLEDNSEKWAVTPDAGDGVVKPSSRADPAQTSDTLALNNQMVTQNRTPHSVCHQKPQAKSGSWDLQTYSADQRTTGNWESHRKSQDMKKRKYDPS
  Kd: 14 nM
